Data as given in patent US9644034B2, “Anti-RSPO2 antibodies and uses thereof” (OncoMed Pharmaceuticals, Inc., priority 2011, dated 2017).

How the values were obtained:
[1] = test system: PN31 pancreatic tumor cells; experiment: PN31 pancreatic tumor xenograft growth in NOD/SCID mice; assay type: in vivo; settings: antibodies 15 mg/kg once a week, intraperitoneal
Procedure: Dissociated PN31 pancreatic tumor cells (1×10^5cells) were injected subcutaneously into the flanks of 6-8 week old NOD/SCID mice. Tumors were allowed to grow for 61 days until they reached an average volume of 120 mm^3. The mice were randomized (n=10 per group) and treated with anti-RSPO1 antibody 89M5, anti-RSPO2 antibody 130M23, gemcitabine, a combination of 89M5 and gemcitabine, a combination of 130M23 and gemcitabine, or control antibody 1B7.11. Antibodies were dosed at 15 mg/kg once a week, and gemcitabine was dosed at […] once a week. Administration of the antibodies and gemcitabine was performed via injection into the intraperitoneal cavity. Tumor growth was monitored and tumor volumes were measured with electronic calipers at specific time points. Data are expressed as mean±S.E.M.

human RSPO1 [2] = molecular target: T1, human RSPO1 (Homo sapiens, UniProt Q2MKA7); experiment: FACS binding of 89M5 and humanized 89M5 to HEK293 cells expressing FLAG-RSPO1furin-CD4TM-GFP; settings: five-fold serial dilutions
T1 construct: followed by the two furin-like domains of RSPO1 (aa 34-135); expressed in transfected cells; host or cells: HEK-293
T1 sequence (Q2MKA7 34-135): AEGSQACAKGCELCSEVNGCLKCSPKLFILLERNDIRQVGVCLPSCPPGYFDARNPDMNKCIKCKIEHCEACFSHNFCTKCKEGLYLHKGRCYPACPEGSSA
Procedure: HEK293 cells were transiently transfected with an expression vector encoding FLAG-RSPO1furin-CD4TM-GFP. As described in Example 5, FLAG-RSPO1furin-CD4TM-GFP is a chimeric fusion protein enabling cell surface expression of the N-terminal furin-like domains of human RSPO1. FLAG-RSPO1 furin-CD4TM-GFP transfected cells were incubated in the presence of anti-RSPO1 antibody 89M5 or humanized anti-RSPO1 antibody h89M5-H2L2. Five-fold serial dilutions of each antibody were examined for their ability to bind to the RSPO1 expressing cells. The cells were stained with Phycoerythrin conjugated anti-IgG to reveal bound antibody. The cells were analyzed on a FACSCalibur instrument (BD Biosciences, San Jose, Calif.) and the data was processed using FlowJo software.

[3] = test system: RSPO1-induced β-catenin signaling; experiment: TOPflash luciferase assay in HEK-293 cells, Wnt3a plus human RSPO1; assay type: cell-based; settings: Wnt3a 5 ng/ml, RSPO1 10 ng/ml; antibodies 10 to 0.625 μg/ml
Procedure: HEK-293 cells were transfected with a 6×TCF-luciferase reporter vector (TOPflash, Millipore, Billerica, Mass.). After 24-48 hrs, the transfected HEK-293 cells were incubated with a combination of Wnt3a (5 ng/ml) and human RSPO1 (10 ng/ml, R&D BioSystems) in the presence of anti-RSPO1 antibodies 89M2, 89M4, 89M5, 89M7, 89M19, and 89M25, or 2 irrelevant control antibodies 254M14 and 254M26 (2-fold dilutions at 10 μg/ml to 0.625 μg/ml). The cells were incubated for 16 hours and luciferase activity was measured using Steady-Glo® Luciferase Assay System according to the manufacturer's instructions (Promega, Madison, Wis.).

human RSPO1 [4] = molecular target: T1, human RSPO1; experiment: FACS screening of hybridoma supernatants on HEK-293 cells expressing FLAG-RSPO1furin-CD4TM-GFP; assay type: binding
Description: Antibodies were generated against recombinant human RSPO1 protein amino acids 31-263 (R&D Systems, Minneapolis, Minn.). Mice (n=3) were immunized with RSPO1 protein using standard techniques. Sera from individual mice were screened against RSPO1 approximately 70 days after initial immunization using FACS analysis. The animal with the highest antibody titer was selected for final antigen boost after which spleen cells were isolated for hybridoma production. SP2/0 cells were used as fusion partners for the mouse spleen cells. Hybridoma cells were plated at 1 cell per well in 96 well plates, and the supernatants were screened against human RSPO1 by FACS analysis.
For FACS screening of anti-RSPO1 antibodies a chimeric fusion protein enabling cell surface expression of the N-terminal furin-like domains of human RSPO1 was constructed.
HEK-293 cells were transfected with FLAG-RSPOlfurin-CD4TM-GFP. After 48 hours, transfected cells were suspended in ice cold PBS containing 2% FBS and heparin and incubated on ice in the presence of 50 μl of hybridoma supernatants for 30 minutes. A second incubation with 100 μl PE-conjugated […] secondary antibody was performed to detect cells bound by antibody. Cells were incubated with an anti-FLAG antibody (Sigma-Aldrich, St. Louis, Mo.) as a positive control and an anti-PE antibody as a negative control. The cells were analyzed on a FACSCalibur instrument (BD Biosciences, San Jose, Calif.) and the data was processed using FlowJo software.

OV19 ovarian tumor cells = experiment: OV19 ovarian tumor xenograft growth in NOD/SCID mice; assay type: in vivo; settings: day 35, vs control antibody; antibodies 15 mg/kg once a week, intraperitoneal
Procedure: Dissociated OV19 ovarian tumor cells (1×10^5cells) were injected in the mammary fat pads of 6-8 week old NOD/SCID mice. Tumors were allowed to grow for 45 days until they reached an average volume of 134 mm^3. The mice were randomized (n=10 per group) and treated with anti-RSPO1 antibody 89M5, 89M25, taxol, a combination of 89M5 and taxol, a combination of 89M25 and taxol, or control antibody 1B7.11. Antibodies were dosed at 15 mg/kg once a week, and taxol was dosed at […] once a week. Administration of the antibodies and taxol was performed via injection into the intraperitoneal cavity. Tumor growth was monitored and tumor volumes were measured with electronic calipers at the indicated time points. Data are expressed as mean±S.E.M.

binding of RSPO1 to LGR5 = molecular target: T2, binding of RSPO1 to LGR5 (Homo sapiens, UniProt Q2MKA7); experiment: FACS: blocking of soluble RSPO1-Fc binding to LGR5 on HEK-293 cells; settings: RSPO1-Fc 10 μg/ml, antibodies 10 μg/ml
T2 construct: full-length human RSPO1, RSPO2, RSPO3 and RSPO4 were ligated in-frame to a human Fc region; made in house; host or cells: RSPO1-Fc: insect cells (baculovirus); LGR5 construct: transiently transfected HEK-293
T2 sequence (Q2MKA7 21-263): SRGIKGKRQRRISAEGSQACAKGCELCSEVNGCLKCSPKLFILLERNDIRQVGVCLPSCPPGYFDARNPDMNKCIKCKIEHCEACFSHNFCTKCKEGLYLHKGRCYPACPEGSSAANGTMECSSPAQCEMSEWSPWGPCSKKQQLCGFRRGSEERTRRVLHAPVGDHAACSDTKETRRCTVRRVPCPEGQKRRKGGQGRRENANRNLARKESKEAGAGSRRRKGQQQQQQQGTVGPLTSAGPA
Procedure: HEK-293 cells were transiently transfected with the FLAG-LGR5-CD4TM-GFP construct (previously described in Example 2). After 48 hours, transfected cells were suspended in ice cold PBS containing 2% FBS and heparin and incubated on ice in the presence of RSPO1-Fc protein (10 μg/ml) and antibodies 89M2, 89M4, 89M5, 89M7, 89M19 or 89M25 (10 μg/ml). A second incubation with 100 μl PE-conjugated anti-human Fc secondary antibody was performed to detect cells bound by the RSPO1-Fc fusion protein. The cells were analyzed on a FACSCalibur instrument (BD Biosciences, San Jose, Calif.) and the data was processed using FlowJo software.

human RSPO2 = molecular target: T3, human RSPO2 (Homo sapiens, UniProt Q6UXX9); experiment: FACS binding of 130M23 and humanized 130M23 to HEK293 cells expressing FLAG-RSPO2furin-CD4TM-GFP; settings: five-fold serial dilutions
T3 construct: followed by the furin-like domains of RSPO2 (aa 31-146); expressed in transfected cells; host or cells: HEK-293
T3 sequence (Q6UXX9 31-146): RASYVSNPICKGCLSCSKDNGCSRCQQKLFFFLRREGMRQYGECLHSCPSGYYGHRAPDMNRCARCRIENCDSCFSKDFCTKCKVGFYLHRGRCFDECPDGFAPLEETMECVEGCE
Procedure: HEK293 cells were transiently transfected with an expression vector encoding FLAG-RSPO2furin-CD4TM-GFP. As described in Example 11, FLAG-RSPO2furin-CD4TM-GFP is a chimeric fusion protein enabling cell surface expression of the N-terminal furin-like domains of human RSPO2. FLAG-RSPO2furin-CD4TM-GFP transfected cells were incubated in the presence of anti-RSPO2 antibody 130M23 or humanized anti-RSPO2 antibody […]. Five-fold serial dilutions of each antibody were examined for their ability to bind to the RSPO2 expressing cells. The cells were stained with Phycoerythrin conjugated anti-IgG to reveal bound antibody. The cells were analyzed on a FACSCalibur instrument (BD Biosciences, San Jose, Calif.) and the data was processed using FlowJo software.

Molecule	effect on tumor growth as single agents [1]	binding to human RSPO1 (FACS) (human RSPO1 [2])	blocking of RSPO1-induced β-catenin signaling [3]	binding to RSPO1 (FACS) (human RSPO1 [4])	reduction in tumor growth (OV19 ovarian tumor cells) [%]	blocking of binding of RSPO1 to LGR5 (binding of RSPO1 to LGR5)	binding to human RSPO2 (FACS) (human RSPO2)
89M5: anti-RSPO1 monoclonal antibody, hybridoma ATCC PTA-11970; variable regions SEQ ID NO:10 and SEQ ID NO:11 (antibody, V domains shown, 89M5 Heavy chain variable region; 89M5 Light chain variable region) VH: EVQLQQSGPELVKPGASVKISCKTSGYTFTGYTMHWVRQSHGKTLEWIGGINPNNGGTTYNQNFKGKATLTVEKSSTTAYLELRSLTSEDSALYYCARKEFSDGYYFFAYWGQGTLVTVSA VL: DIVMTQSHKFMSTSVGDRVNITCKASQDVIFAVAWYQQKPGQSPKLLIYWASTRHTGVPDRFTGSVSGTDYTLTISSVQAEDLALYYCQQHYSTPWTFGGGTKLEIK	only a minimal effect	bind	blocked	bound	40	blocked	–
h130M23-H1L2: humanized anti-RSPO2 antibody; heavy chain SEQ ID NO:70, light chain SEQ ID NO:71 (antibody, h130M23-H1L2 Heavy chain amino acid sequence; h130M23-H1L2 Light chain amino acid sequence) heavy: EVQLVESGGGLVKPGGSLRLSCAASGFTFSSYAMSWVRQAPGKGLEWVSSISSGGSTYYPDSVKGRFTISRDNAKNSLYLQMNSLRAEDTAVYYCARGGDPGVYNGDYEDAMDYWGQGTTVTVSSASTKGPSVFPLAPCSRSTSESTAALGCLVKDYFPEPVTVSWNSGALTSGVHTFPAVLQSSGLYSLSSVVTVPSSNFGTQTYTCNVDHKPSNTKVDKTVERKCCVECPPCPAPPVAGPSVFLFPPKPKDTLMISRTPEVTCVVVDVSHEDPEVQFNWYVDGVEVHNAKTKPREEQFNSTFRVVSVLTVVHQDWLNGKEYKCKVSNKGLPAPIEKTISKTKGQPREPQVYTLPPSREEMTKNQVSLTCLVKGFYPSDIAVEWESNGQPENNYKTTPPMLDSDGSFFLYSKLTVDKSRWQQGNVFSCSVMHEALHNHYTQKSLSLSPGK light: DIQMTQSPSSLSASVGDRVTITCKASQDVSSAVAWYQQKPGKAPKLLIYWASTRHTGVPSRFSGSGSGTDFTLTISSVQAEDFATYYCQQHYSTPWTFGQGTKVEIKRTVAAPSVFIFPPSDEQLKSGTASVVCLLNNFYPREAKVQWKVDNALQSGNSQESVTEQDSKDSTYSLSNTLTLSKADYEKHKVYACEVTHQGLSSPVTKSFNRGEC	–	–	–	–	–	–	bind
